As a reminder, the Kd is the free concentration of one partner at which half of the binding sites on the other are occupied at equilibrium, for simple one-to-one binding. A low value points to tighter binding.

The values that follow come from patent US20130202594A1, “ALK1 Antagonists and Their Uses in Treating Renal Cell Carcinoma” (priority 2012, published 2013).

Entries after “also recorded” stand apart in the source; their conditions may differ.

Assay [1] has as its system MCF-7 cell line. As to the kind of experiment: MCF-7 orthotopic breast cancer xenograft. Format: in vivo, mouse. Particulars: 10 or 30 mg/kg twice per week IP. On the procedure:
The estrogen-receptor-positive (ER+), luciferase expressing cell line, MCF-7, was also tested in an orthotopic implantation model. In this model, female nude mice are implanted subcutaneously with a 60 day slow release pellet of 17β-estradiol. Two days following pellet implantation, 5×10^6 MCF-7 tumor cells were implanted into the mammary fat pad. Mice were treated twice per week with hALK1-Fc at 3, 10 and 30 mg/kg, or vehicle control, by the IP route. Tumor progression was followed by bioluminescent imaging on a weekly basis with an IVIS-Spectrum imager (Caliper Life Sciences). In vehicle treated mice tumors progressed rapidly until study day 26 (FIG. 15). After day 26, there were fluctuations in tumor luminescence until the conclusion of the study at day 60 (when the estradiol pellets were depleted). These fluctuations are due to a common feature of this model in that the rapid tumor growth can exceed the angiogenic response of the host animals leading to tumor necrosis and a concomitant drop-off in luminescent signal. The remaining cells continue to grow leading to an increased signal.

Assay [2] deals with GDF11 (Homo sapiens, UniProt O95390). Kind of assay: Biacore binding to hALK1-Fc: GDF11. On the procedure:
(§1) ALK1 is a type 1 receptor for ligands of the TGFβ family. Multiple members of the TGFβ family were tested for binding to a human ALK1-Fc fusion protein, using a Biacore™ system.
(In general: SPR reads the build-up and loss of mass on a sensor chip optically.)

The target of assay [3] is T1, GDF5 (Homo sapiens, UniProt P43026).
T1 sequence (P43026 382-501): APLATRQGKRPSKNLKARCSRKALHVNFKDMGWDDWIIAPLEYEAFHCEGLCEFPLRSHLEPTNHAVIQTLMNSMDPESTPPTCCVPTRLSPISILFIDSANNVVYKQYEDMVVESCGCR
Kind of assay: Biacore binding to hALK1-Fc: GDF5. The procedure:
as §1

Sequence of GDF11 (O95390 299-407, species assumed): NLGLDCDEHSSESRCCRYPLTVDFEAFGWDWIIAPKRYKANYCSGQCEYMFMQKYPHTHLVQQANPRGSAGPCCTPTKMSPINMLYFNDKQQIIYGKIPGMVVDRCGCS

As for “hALK1-Fc: extracellular domain of human ALK1 (amino acids 22-120) fused to a human IgG1 Fc with a minimal linker (SEQ ID NO:3/14)”, the “tumor size / growth (bioluminescence)” value in assay [1] is recorded as “maintain tumor size at a constant level; also recorded: significant growth-delaying effect”. Also, the “binding to hALK1-Fc” value in assay [2] is “failed to show substantial binding”. Besides, in assay [3], the dissociation constant (Kd) was about 50 nM.
